Drawing on paper PMC8528861, “Structural and functional analysis of target recognition by the lymphocyte adaptor protein LNK” (Nature Communications, 2021), this text covers IC50, fold loss in affinity relative to the WT SH2 domain and Kd for eight substances.

The target of assay [1] is M. musculus LNK SH2 domain (residues 324–446), wild type (mouse) (UniProt O09039). In words: SPR; competition: biotinylated IL6ST pY757 peptide immobilised on a streptavidin chip; 0.1–0.5 μM WT LNK SH2 domain pre-incubated with phosphopeptide and flowed over; 10 mM HEPES pH 7.4, 150 mM NaCl, 3.4 mM EDTA, 0.005% Tween 20; response normalised to LNK only, IC50 fit. In general terms: SPR reads the build-up and loss of mass on a sensor chip optically.

Assay [2] concerns the target biotinylated JAK2 pY813 peptide. Put plainly: SPR; direct binding: biotinylated JAK2 pY813 immobilised on a streptavidin chip; LNK and SH2B SH2 domains flowed over for 420 s at 30 μL/min; 10 mM HEPES pH 7.4, 150 mM NaCl, 3.4 mM EDA, 0.005% Tween 20.

M. musculus LNK SH2 domain (residues 324–446), wild type (mouse), sequence (O09039 324-446): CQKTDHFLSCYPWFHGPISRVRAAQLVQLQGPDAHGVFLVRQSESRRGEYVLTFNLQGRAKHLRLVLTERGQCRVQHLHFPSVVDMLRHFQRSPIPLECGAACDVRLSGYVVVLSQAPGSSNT

For orientation: IC50 means the concentration that gives 50% inhibition. In turn, JAK2 pY813 peptide mutant +1A yielded an IC50 in assay [1] of 0.43 µM.

As to JAK2 pY813 peptide mutant +3F, the half-maximal inhibitory concentration (IC50) in assay [1] is 1.43 µM. Compared with the last substance, the IC50 is about 3.3-fold higher.

For JAK2 pY813 peptide mutant +4A, in assay [1], the IC50 was 0.09 µM.

In assay [1], JAK2 pY813 peptide mutant +5A registered an IC50 of 0.3 µM.

In the case of JAK2 pY813 peptide mutant −1A, the IC50 in assay [1] was found to be 0.15 µM. Against the preceding substance, the IC50 is about 2-fold lower.

For the substance “M. musculus LNK SH2 domain R387C (from UniProt O09039 325-438) (domain or fragment)”, the fold loss in affinity relative to the WT SH2 domain in assay [2] was determined as 3 fold.

For the substance “M. musculus LNK SH2 domain R387H (from UniProt O09039 325-438) (domain or fragment)”, the fold loss in affinity relative to the WT SH2 domain in assay [2] is 10 fold.

By Kd is commonly meant the concentration at which binding is half-saturated. Lower therefore signals a tighter complex. As for “mouse SH2B SH2 domain (from UniProt Q91ZM2 527-625) (domain or fragment)”, the Kd in assay [2] came to 0.1 µM.
